Assay results published in patent US20250074988A1 (SHANGHAI HUAOTA BIOPHARMACEUTICAL, published 2025).

How the values were obtained:
[1] = target: T1, recombinant human PD-L1 protein (Item No. 10084-H08H, Sino Biological) (human, UniProt Q9NZQ7 19-238); test: SPR, humanization screening
T1 construct: Bought protein; also called huPD-L1; human PD-L1 antigen

[2] = target: T1, recombinant human PD-L1 protein (Item …); test: SPR, Biacore 8K, antibody captured as ligand, PD-L1 analyte, 1:1 model
[3] = target: T2, human PD-L1 on CHO-K1-huPD-L1 cells (human, UniProt Q9NZQ7 19-290); test: cell-based or functional assay
T2 sequence (Q9NZQ7 19-290): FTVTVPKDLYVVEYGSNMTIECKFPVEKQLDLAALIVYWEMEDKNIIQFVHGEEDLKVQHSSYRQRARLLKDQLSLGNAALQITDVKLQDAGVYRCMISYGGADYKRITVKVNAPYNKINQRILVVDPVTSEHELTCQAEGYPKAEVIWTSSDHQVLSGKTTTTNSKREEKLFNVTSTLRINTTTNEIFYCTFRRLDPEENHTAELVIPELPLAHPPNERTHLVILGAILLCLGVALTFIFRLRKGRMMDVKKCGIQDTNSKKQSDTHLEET

[4] = target: T3, human PD-L1-moFc recombinant protein (human); test: flow cytometry, blocking of PD-L1-moFc binding to CHO-K1-huPD-1 cells
T3 construct: also called free PD-L1
T3 sequence (chain, as listed by the source limits assumed): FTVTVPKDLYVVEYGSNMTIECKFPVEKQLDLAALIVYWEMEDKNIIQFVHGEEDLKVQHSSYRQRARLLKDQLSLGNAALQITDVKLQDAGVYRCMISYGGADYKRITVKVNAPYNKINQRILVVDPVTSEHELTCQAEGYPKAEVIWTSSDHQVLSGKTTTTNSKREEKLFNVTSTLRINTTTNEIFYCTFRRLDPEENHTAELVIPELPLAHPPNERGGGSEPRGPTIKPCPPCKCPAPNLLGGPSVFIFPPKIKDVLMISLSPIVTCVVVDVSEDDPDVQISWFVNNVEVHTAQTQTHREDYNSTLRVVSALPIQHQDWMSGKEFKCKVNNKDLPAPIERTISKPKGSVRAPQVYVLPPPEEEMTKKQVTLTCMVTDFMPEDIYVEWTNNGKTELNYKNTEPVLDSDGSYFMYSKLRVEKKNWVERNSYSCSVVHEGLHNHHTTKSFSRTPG
Method: The antibodies to be tested were diluted with 3-fold gradient, added at 20 μL/well into the 96-well plate with the antigen added, mixed well, and incubated at room temperature for 15 min. CHO-K1-huPD-1 cells overexpressing human PD-1 were added at 2×10⁴/well into the 96-well plate pre-incubated with antigen-antibody, mixed well, and incubated at room temperature for 15 min. The mixture was centrifuged at 300 g for 5 min, the supernatant was removed, and the cells were washed twice with FACS buffer. Anti-moFc-Alexa 488 (Item No.: 115-545-071, Jackson) secondary antibodies were diluted at 1:300, added, mixed well, and incubated at room temperature for 15 min. The cells were washed three times and measured on instrument for the fluorescence intensity on their surfaces.

[5] = target: T1, recombinant human PD-L1 protein (Item …); test: ELISA, humanization screening
[6] = target: T2, human PD-L1 on CHO-K1-huPD-L1 cells; test: flow cytometry on CHO-K1-huPD-L1 cells; parent chimeric antibody
Method: CHO-K1-huPD-L1 cells overexpressing human PD-L1 were plated in a 96-well plate at 2×10⁴/well, and the 3-fold serial gradient dilutions of the samples to be tested were added at 20 μl/well, and co-incubated with the cells at room temperature for 30 min. The cells were washed by centrifugation to remove unbound antibodies, and 20 μl of R-Phycoerythrin AffiniPure Goat Anti-Human IgG, Fcγ Fragment Specific (Item No.: 109-115-098, Jackson ImmunoResearch; diluted with 1% (w/v) BSA-PBS at 1:200) fluorescent secondary antibodies were added to each well, and incubated for 15 min. The cells were then washed twice, resuspended in 100 μl of 1% (w/v) BSA-PBS, and detected for their fluorescence intensity at 585 nm by flow cytometry (BD, FACS Cantoll) under 488 nm excitation.

[7] = target: T1, recombinant human PD-L1 protein (Item …); test: SPR, Biacore 8K, antibody captured on anti-human chip, huPD-L1 analyte, 1:1 model
Method: The Anti-Human Capture-CM5 chips (Item No.: BR-1005-30, GE) were prepared according to the coupling method of the Human Antibody Captrue Kit (Item No.: BR-1008-39, GE) and the amino coupling kit (Item No.: BR-1000-50, GE). The chips were equilibrated at room temperature for 20-30 min and assembled into the Biacore 8K instrument. B5D1 was diluted to the experimental working concentration with the equilibrium buffer. The antigen was diluted to 50 nM with the equilibrium buffer, and then diluted to give samples with 7 concentration gradients by 3× serial dilution, and 2 samples with zero concentration (i.e. the equilibrium buffer) and a duplicate sample with one concentration (typically, a duplicate sample with the minimum concentration) were set. According to the antibody, the antigen huPD-L1 (Item No.: 10084-H08H, Sino Biological), and the regeneration order, the samples with 10 antigen concentrations (2 with zero concentration, 7 with gradient concentrations and 1 with duplicate concentration) were subject to experimental analysis with an antigen injection flow rate of 30 μl/min, the binding time of 120 seconds, and the dissociation time of 600 seconds.

T1 sequence (Q9NZQ7 19-238 limits assumed): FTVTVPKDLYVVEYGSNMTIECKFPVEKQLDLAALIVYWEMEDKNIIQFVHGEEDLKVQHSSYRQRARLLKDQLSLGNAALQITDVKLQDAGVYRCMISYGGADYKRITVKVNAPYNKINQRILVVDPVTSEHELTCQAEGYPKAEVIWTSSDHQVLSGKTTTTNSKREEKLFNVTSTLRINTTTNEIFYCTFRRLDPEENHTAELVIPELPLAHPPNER

B1: chimeric antibody 900245 (antibody, V domains shown)
VH: QIQLQQSGPELVKPGASVKISCKASGYTFTDYYINWVKQRPGQGLEWIGWIYLGSGNAKYNEKFKGKATLTVDTSSSTAYMHLSSLTSEDSAVYFCARCVGTYWYFDVWGAGTTVTVSS
VL: QILLTQSPATMSASPGEKVTMTCSASSSVSYMHWYQQKPGSSPKPWIYDTSNVASGFPARFSGSGSGTSYSLIISSMEAEDAATYYCHQRSSYPWTFGGGTKLEIK
notes: also called parent chimeric antibody; anti-PD-L1 human-mouse chimeric antibody
Kd [1]: 0.72 nM | Kd [2]: 0.346 nM | koff [2]: 0.000127 s⁻¹ | kon [2]: 368000 M⁻¹ s⁻¹ | EC50, T cell activation (NFAT-luciferase RLU, Jurkat-NFAT-PD-1-5B8 effector cells with CHO-K1-OS8-PD-L1-8D6 target cells) [3]: 0.287 µg/mL | IC50 [4]: 2.84 µg/mL | EC50 [5]: 0.499 µg/mL | EC50 [6]: 0.125 µg/mL | Kd [7]: 0.0773 nM | koff [7]: 9.54e-05 s⁻¹ | kon [7]: 1.24e+06 M⁻¹ s⁻¹
